Measurements reported in doi:10.1101/710897.

Molecular target: UapA K73A/R133A/R421A/T401P, purified, detergent-solubilized (Aspergillus nidulans) (UniProt Q07307)
Assay: native MS

UapA K73A/R133A/R421A/T401P, purified, detergent-solubilized (from UniProt Q07307 1-574) (natural protein)
stoichiometry N: 2
